Experimental data published in publication PMC3318979.

How the values were obtained:
[1] = target: mitochondrial respiratory chain complex I (human) (UniProt Q16795); experiment: native gel or EMSA
[2] = target: mitochondrial respiratory chain complex III dimer (human) (UniProt P22695); experiment: native gel or EMSA
Chain of UniProt P22695 (P22695 whole entry, looked up, one chain of several): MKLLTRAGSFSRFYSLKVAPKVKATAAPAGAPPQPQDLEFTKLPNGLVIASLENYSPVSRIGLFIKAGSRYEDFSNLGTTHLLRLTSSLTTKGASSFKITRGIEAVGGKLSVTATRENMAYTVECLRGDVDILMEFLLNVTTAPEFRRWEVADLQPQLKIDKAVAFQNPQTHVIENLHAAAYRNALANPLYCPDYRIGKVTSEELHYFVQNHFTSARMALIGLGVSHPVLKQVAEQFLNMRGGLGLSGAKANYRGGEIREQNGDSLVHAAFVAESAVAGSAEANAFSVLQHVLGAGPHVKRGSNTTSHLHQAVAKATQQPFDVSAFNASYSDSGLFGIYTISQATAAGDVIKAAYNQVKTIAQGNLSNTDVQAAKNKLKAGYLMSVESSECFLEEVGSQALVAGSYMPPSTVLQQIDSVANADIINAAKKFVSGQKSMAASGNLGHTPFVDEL

Chain of UniProt Q16795 (Q16795 whole entry, looked up, one chain of several): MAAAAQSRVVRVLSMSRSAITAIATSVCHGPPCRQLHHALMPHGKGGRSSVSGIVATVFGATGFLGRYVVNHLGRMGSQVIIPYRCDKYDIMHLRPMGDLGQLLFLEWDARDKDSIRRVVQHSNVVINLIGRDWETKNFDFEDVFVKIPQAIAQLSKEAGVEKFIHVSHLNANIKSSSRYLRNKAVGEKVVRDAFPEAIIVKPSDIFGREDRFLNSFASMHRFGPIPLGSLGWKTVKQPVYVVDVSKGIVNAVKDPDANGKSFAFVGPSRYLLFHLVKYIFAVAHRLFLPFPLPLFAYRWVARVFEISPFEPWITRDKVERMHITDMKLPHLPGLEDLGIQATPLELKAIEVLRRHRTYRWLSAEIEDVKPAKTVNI

Row | percent of the subunits' signal in supercomplex III2+IV [2] [%] | Substance | percent of the subunits' signal in I+III2+IVn supercomplexes [1] [%]
1 |  | mitochondrial respiratory chain complex III dimer (from UniProt P22695 15-453; P47985 79-274) | 50
2 | 1 to 3 | mitochondrial respiratory chain complex IV (from UniProt P00395 1-513; P00403 1-227; P13073 23-169; P20674 42-150; P09669 1-75) | 
